Source: US20200347144A1 (SHANGHAI HYAMAB BIOTECH, published 2020)
Residue numbers refer to the chain shown, from its start.

B1: 57B3D10 (antibody, V domains shown)
VH: QVQLQESGPGLVKPSETLSLTCTVSGGSISSYYWSWIRQPPGKGLEWIGYIYYSGSTNYNPSLKSRVTISVDTSKSQFSLKLTSVTAADTAVYYCAKDSDYYGSGSYSYWYFDLWGRGTLVTVSS
VL: EIVMTQSPATLSVSPGERATLSCRASQSVSSNLAWYQQKPGQAPRLLIYGASTRAPGIPARFSGSGSGTEFTLTISSLQSEDFAVYYCQQYNNWPLTFGGGTKVEIK
notes: also called 4-1BB fully human antibody 57B3D10
B2: 258F5A8 (antibody, V domains shown)
VH: QVQLVESGGGVVQPGRSLRLSCAASGFTFSSYGMHWVRQAPGKGLEWVAVIWYDGSNKYYADSVKGRFNISRDNSKNTLYLQMNSLRAEDTAVYYCARGPYLYSSGWYDYYYYGMDVWGQGTTVTVSS
VL: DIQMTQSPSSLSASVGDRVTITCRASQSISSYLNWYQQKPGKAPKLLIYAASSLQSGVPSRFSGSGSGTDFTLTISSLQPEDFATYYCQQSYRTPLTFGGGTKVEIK
B3: 259G10E11 (antibody, V domains shown)
VH: B2 VH with N69T
VL: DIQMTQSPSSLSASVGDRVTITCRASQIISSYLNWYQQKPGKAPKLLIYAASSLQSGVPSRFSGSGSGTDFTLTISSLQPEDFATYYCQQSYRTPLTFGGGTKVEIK
B4: 119B6G5 (antibody, V domains shown)
VH: EVQLLESGGGLVQPGGSLRLSCAASGFTFSNYAMSWVRQGPGKGLEWVSTIIGSGDSTYYTDSVKGRFTISRDNSKNTLFLQMNSLRAEDTAVYYCARDKSGWYYFDYWGQGTLVTVSS
VL: DIQMTQSPSTLSASVGDRVTITCRASQSISNWLAWYQQKPGKAPKLLIYKASSLESGVPSRFSGSGSGTEFTLTISSLQPDDFATYYCQQYNDYFPITFGQGTRLEIK
B5: 15G10D4 (antibody, V domains shown)
VH: QVQLVESGGGVVQPGRSLRLSCAASGFSFSSYAMHWVRQAPGKGLEWVAIIWYDGSNQYYADSVKGRFTISRDNSKNTLYLQMNSLRAEDTAVYYCARVKQWLVSYFDYWGQGTLVTVSS
VL: EIVMTQSPATLSVSPGERATLSCRASQSVSSNLAWYQQKPGQVPRLLIYGASTRATGIPARFSGSGSGTEFSLIISSLQSEDFAVYYCQQYNNWPTFGGGTKVEIK
B6: 113F6C6 (antibody, V domains shown)
VH: QVQLVESGGGVVQPGRSLRLSCAASGLTFSSYGMHWVRQAPGKGLEWVAVIWYDGSNKYYADSVKGRFTISRDNSKNTLYLQMNSLRAEDTAVYYCAREEVLWFGELSYNYYYGMDVWGQGTTVTVSS
VL: DIQMTQSPSSLSASVGDRVTITCRASQGISNYLAWYQQKPGKVPKLLIYAASTLQSGVPSRFSGSGSGTDFTLTISSLQPEDVATYYCQKYNSVPLTFGGGTKVEIK
notes: also called 4-1BB fully human antibody 113F6C6; 113F6F6
B7: 263A11E3 (antibody, V domains shown)
VH: QVQLQESGPGLVKPSETLSLTCAVSGYSISSGYYWGWIRQPPGKGLEWIGSIYHSGSTSYNPSLRSRVTISVDTSKNQFSLKLSSVTAADTAVYYCARDAGGFDYWGQGTLVTVSS
VL: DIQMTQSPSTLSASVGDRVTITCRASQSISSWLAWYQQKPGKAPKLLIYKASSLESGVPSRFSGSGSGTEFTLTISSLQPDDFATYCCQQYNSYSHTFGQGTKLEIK

The binders below were run against T1, human 4-1BB, full length, on transfected cells (human, UniProt Q07011 24-255) (assay: FACS, CHOK1-h4-1BB cells; Ab 2 ug/ml).
T1 construct: whole, on cells; also called CHOK1-h4-1BB
T1 sequence (Q07011 24-255): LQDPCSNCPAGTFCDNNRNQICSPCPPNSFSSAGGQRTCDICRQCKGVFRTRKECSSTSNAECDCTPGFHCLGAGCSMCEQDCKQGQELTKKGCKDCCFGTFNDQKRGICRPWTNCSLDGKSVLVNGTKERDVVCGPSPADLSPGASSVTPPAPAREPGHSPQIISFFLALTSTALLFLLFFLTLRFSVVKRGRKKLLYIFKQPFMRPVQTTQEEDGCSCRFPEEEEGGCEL
Description: (§1) The pIRES plasmid carrying the full-length gene of monkey-derived […] (the preparation method is the same as the preparation method of the pCpC vector carrying the human-derived IgG Fc fragment (hFc) in “Preparation of immunogen A” of the step (1) in Example 1, in which the database accession number of the amino acid sequence of the extracellular region of monkey 4-1BB protein (Phe19-Thr239) is G7PSE7) was transfected into CHOK1 cell line to obtain CHOK1 stable transfected cell line containing monkey 4-1BB (herein referred to as CHOK1-c4-1BB stable cell line). The CHOK1-h4-1BB stable cell line and the CHOK1-c4-1BB stable cell line were expanded and cultivated to 90% confluence in T-75 cell culture flasks. The medium was exhausted, and washed twice with HBSS buffer (Hanks Balanced Salt Solution, purchased from Invitrogen), and then the cells were treated and collected with enzyme-free cell dissociation solution (Versene solution, purchased from Life Technology). The cells were washed twice with HBSS buffer, and after cell counting, the cells were diluted with HBSS buffer to 2×10⁶ cells per ml, and 1% goat serum blocking solution was added, the percentage being the mass percentage. It was incubated on ice for 30 minutes, and then washed twice with HBSS buffer by centrifugation. The collected cells were suspended in FACS buffer (HBSS containing 1% BSA, the percentage was the mass percentage) to 2×10⁶ cells/mL, and 100 μl per well was added to a 96-well FACS reaction plate. The purified 4-1BB antibody test sample obtained in Example 2 was added, 100 microliters per well and incubated on ice for 2 hours. […] It was washed three times with FACS buffer by centrifugation, and 100 μl of fixative [4% (v/v) paraformaldehyde] per well was added to suspend cells, and washed twice with FACS buffer after 10 minutes by centrifugation. The cells were suspended with 100 microliters of FACS buffer, and the results were detected and analyzed with FACS (FACS Calibur, purchased from BD).

Binder	average fluorescence intensity [MFI]
B1	555
B2	766
B3	803
B4	1080
B5	521
B6	477
B7	1690

The binders below were run against T2, monkey 4-1BB on CHOK1 cells (monkey) (assay: FACS, CHOK1-c4-1BB cells; Ab 2 ug/ml).
T2 construct: whole, on cells; also called CHOK1-c4-1BB
Description: as §1

Binder	average fluorescence intensity [MFI]
B1	567
B2	112
B3	107
B4	1350
B5	646
B6	438
B7	93.5

The binders below were run against T1, human 4-1BB, full length, on … (assay: FACS, CHOK1-h4-1BB cells; Ab 0.4 ug/ml).
Description: as §1

Binder	average fluorescence intensity [MFI]
B1	490
B2	591
B3	625
B4	636
B5	492
B6	323
B7	1120

These binders were tested against T1, human 4-1BB, full length, on … (assay: FACS, CHOK1-h4-1BB cells; Ab 0.08 ug/ml).
Description: as §1

Binder	average fluorescence intensity [MFI]
B1	389
B2	252
B3	252
B4	199
B5	322
B6	154
B7	356

Each binder was assayed against T2, monkey 4-1BB on CHOK1 cells (assay: FACS, CHOK1-c4-1BB cells; Ab 0.016 ug/ml).
Description: as §1

Binder	average fluorescence intensity [MFI]
B1	63.5
B2	9.9
B3	9.3
B4	77.9
B5	37.3
B6	51.5
B7	8

Each binder was assayed against T2, monkey 4-1BB on CHOK1 cells (assay: FACS, CHOK1-c4-1BB cells; Ab 0.0032 ug/ml).
Description: as §1

Binder	average fluorescence intensity [MFI]
B1	15
B2	4.5
B3	4.3
B4	20.7
B5	12
B6	15.1
B7	3.8

Each binder was assayed against T3, monkey 4-1BB-his protein (monkey) (assay: ELISA, coated monkey 4-1BB-his; Ab 2 ug/ml).
T3 construct: extracellular domain; Bought protein; also called extracellular domain of monkey-derived 4-1BB protein
Procedure: (§2) The purified immunogen A (4-1BB-hFc), monkey 4-1BB-his, and mouse 4-1BB-his obtained in Example 1 [for the preparation method, see step 1 of Example 1, preparation of immunogen A], of which the extracellular domain of monkey-derived 4-1BB protein (purchased from ACRO biosystems), the extracellular domain of mouse 4-1BB protein (purchased from sino biological) or other immune detection point proteins respectively were diluted with PBS to a final concentration of 1.0 μg/mL, then added with […] per well to 96-well ELISA plate. It was sealed with plastic film and incubated at 4° C. overnight. The next day, the plate was washed twice with the plate-washing solution [PBS containing 0.01% (v/v) Tween20] and blocking solution [PBS containing 0.01% (v/v) Tween 20 and 1% (v/v) BSA] was added and blocked at room temperature for 2 hours. The blocking solution was discarded and 100 μl of the purified 4-1BB antibody obtained in Example 2 was added per well. After incubated at 37° C. for 2 hours, the plate was washed 3 times with a plate-washing solution [PBS containing 0.01% (v/v) Tween20]. A secondary antibody (purchased from Sigma) labeled with HRP (horseradish peroxidase) was added, and after incubated at 37° C. for 2 hours, the plate was washed 3 times with a plate-washing solution [PBS containing 0.01% (v/v) Tween20]. 100 μl of TMB substrate was added per well. After incubated for 30 minutes at room temperature, 100 μl of stop buffer (1.0N HCl) was added per well. The A450 nm values were read using an ELISA plate reader (SpectraMax 384plus, Molecular Device).

Binder	OD450 nm [OD450 nm]
B1	2.47
B2	1.78
B3	1.51
B4	2.46
B6	2.2
B7	0.39

The binders below were run against T1, human 4-1BB, full length, on … (assay: FACS, CHOK1-h4-1BB cells; Ab 0.00064 ug/ml).
Description: as §1

Binder	average fluorescence intensity [MFI]
B1	12.5
B2	7
B3	7.1
B4	5.1
B5	9.3
B6	4.8
B7	8

Each binder was assayed against T2, monkey 4-1BB on CHOK1 cells (assay: FACS, CHOK1-c4-1BB cells; Ab 0.00064 ug/ml).
Description: as §1

Binder	average fluorescence intensity [MFI]
B1	5.6
B2	3
B3	2.9
B4	6.6
B5	4.8
B6	5.5
B7	2.8

The binders below were run against T4, hFc-tagged human 4-1BB extracellular domain protein (4-1BB-hFc) (human, UniProt Q07011 24-186, limits assumed) (assay: ELISA, coated human 4-1BB-hFc; Ab 0.0001 ug/ml).
T4 construct: also called immunogen A; 4-1BB^ECD-hFc; not shown: human IgG Fc fragment (hFc) of the pCpC vector
Procedure: as §2

Binder	OD450 nm [OD450 nm]
B2	0.06
B3	0.07
B4	0.07
B5	0.17
B7	0.07

Each binder was assayed against T4, hFc-tagged human 4-1BB extracellular … (assay: ELISA, coated human 4-1BB-hFc; Ab 0.0006 ug/ml).
Procedure: as §2

Binder	OD450 nm [OD450 nm]
B2	0.09
B3	0.11
B4	0.11
B5	0.19
B7	0.1

Each binder was assayed against T4, hFc-tagged human 4-1BB extracellular … (assay: ELISA, coated human 4-1BB-hFc; Ab 0.0032 ug/ml).
Procedure: as §2

Binder	OD450 nm [OD450 nm]
B2	0.26
B3	0.33
B4	0.33
B5	0.52
B7	0.3

These binders were tested against T3, monkey 4-1BB-his protein (assay: ELISA, coated monkey 4-1BB-his; Ab 0.0001 ug/ml).
Procedure: as §2

Binder	OD450 nm [OD450 nm]
B1	0.08
B2	0.07
B3	0.07
B4	0.08
B6	0.07
B7	0.07

These binders were tested against T3, monkey 4-1BB-his protein (assay: ELISA, coated monkey 4-1BB-his; Ab 0.0006 ug/ml).
Procedure: as §2

Binder	OD450 nm [OD450 nm]
B1	0.1
B2	0.07
B3	0.07
B4	0.11
B6	0.08
B7	0.07

The binders below were run against T1, human 4-1BB, full length, on … (assay: FACS on CHOK1-h4-1BB cells, Alexa 488 secondary antibody, average fluorescence intensity).
Description: as §1

Binder	EC50 (read off the curve) [µg/mL]
B1	~0.05
B2	~0.2
B3	~0.2
B5	~0.05
B6	~0.1
B7	~0.3
